Reference: article PMC4357707 (Nucleic Acids Research, 2015)

Tests used:
HEN1-KK69-70AA = target: T1, HEN1-KK69-70AA (Arabidopsis thaliana, UniProt Q9C5Q8 1-942, K69A;K70A); assay: EMSA
T1 sequence: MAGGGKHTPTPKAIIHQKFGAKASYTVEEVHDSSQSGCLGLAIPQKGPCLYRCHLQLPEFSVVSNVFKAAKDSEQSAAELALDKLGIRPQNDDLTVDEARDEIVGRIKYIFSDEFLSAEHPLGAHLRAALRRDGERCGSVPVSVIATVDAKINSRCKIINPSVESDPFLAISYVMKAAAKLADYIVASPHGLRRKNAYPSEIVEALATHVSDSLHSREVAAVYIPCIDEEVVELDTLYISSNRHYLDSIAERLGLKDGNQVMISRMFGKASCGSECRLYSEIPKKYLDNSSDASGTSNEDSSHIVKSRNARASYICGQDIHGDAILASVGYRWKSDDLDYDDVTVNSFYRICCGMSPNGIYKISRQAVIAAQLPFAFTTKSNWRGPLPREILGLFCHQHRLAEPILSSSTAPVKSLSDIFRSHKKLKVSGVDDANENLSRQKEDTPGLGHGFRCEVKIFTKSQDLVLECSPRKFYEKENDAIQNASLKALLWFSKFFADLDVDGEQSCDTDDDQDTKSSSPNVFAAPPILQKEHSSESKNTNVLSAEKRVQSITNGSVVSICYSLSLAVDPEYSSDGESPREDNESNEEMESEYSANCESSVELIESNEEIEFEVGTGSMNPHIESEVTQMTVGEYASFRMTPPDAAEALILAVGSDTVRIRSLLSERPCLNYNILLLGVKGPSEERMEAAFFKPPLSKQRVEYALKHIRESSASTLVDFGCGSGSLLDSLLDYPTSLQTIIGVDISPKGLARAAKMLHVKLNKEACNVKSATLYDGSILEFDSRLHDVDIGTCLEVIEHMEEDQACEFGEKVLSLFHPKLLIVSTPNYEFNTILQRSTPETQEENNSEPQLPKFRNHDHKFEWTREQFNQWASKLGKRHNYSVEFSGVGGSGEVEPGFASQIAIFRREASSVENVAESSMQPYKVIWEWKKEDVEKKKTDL

HEN1-RHK389,397,477AAA = target: T2, HEN1-RHK389,397,477AAA (Arabidopsis thaliana, UniProt Q9C5Q8 1-942, R389A;H397A;K477A); assay: EMSA
T2 sequence: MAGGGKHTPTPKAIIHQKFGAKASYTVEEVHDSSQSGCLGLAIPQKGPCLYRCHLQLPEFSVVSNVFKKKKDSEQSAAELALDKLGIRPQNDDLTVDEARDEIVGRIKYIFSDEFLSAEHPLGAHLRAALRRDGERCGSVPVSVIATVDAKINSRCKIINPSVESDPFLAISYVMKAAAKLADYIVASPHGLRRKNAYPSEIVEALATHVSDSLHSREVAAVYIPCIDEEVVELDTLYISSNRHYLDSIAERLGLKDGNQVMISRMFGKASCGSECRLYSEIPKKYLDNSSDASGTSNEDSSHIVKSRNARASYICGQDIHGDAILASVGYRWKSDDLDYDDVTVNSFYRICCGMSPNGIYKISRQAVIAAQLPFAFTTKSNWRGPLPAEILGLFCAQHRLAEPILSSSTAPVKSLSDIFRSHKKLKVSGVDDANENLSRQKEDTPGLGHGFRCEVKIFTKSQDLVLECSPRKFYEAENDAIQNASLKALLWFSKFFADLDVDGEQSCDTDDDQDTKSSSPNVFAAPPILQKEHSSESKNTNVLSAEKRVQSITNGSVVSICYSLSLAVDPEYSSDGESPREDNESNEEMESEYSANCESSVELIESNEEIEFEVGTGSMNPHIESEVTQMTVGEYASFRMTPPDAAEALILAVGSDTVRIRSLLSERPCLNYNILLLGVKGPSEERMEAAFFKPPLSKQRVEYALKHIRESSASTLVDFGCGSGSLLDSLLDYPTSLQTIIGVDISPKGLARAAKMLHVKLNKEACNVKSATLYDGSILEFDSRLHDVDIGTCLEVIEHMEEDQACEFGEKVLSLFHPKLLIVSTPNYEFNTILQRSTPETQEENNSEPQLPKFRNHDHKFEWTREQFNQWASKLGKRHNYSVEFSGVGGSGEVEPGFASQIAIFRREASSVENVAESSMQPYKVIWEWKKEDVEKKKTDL

B1: miR173/miR173* (dsRNA)
RNA 1: UUCGCUUGCAGAGAGAAAUCAC
RNA 2: GAUUCUCUGUGUAAGCGAAAG
binding result (HEN1-KK69-70AA): no binding
Kd (HEN1-RHK389,397,477AAA): 65 ± 12 nM
